Measured values as given in the supplement of paper PMC6757056.
± gives the standard deviation of the averaged measurements.

B1: library; a variant is named by its letters at N, in order (parent)
chain: GCUGUCACCGAGAAACUGUGAAGUAUAUCUUAAACCUGGGCACUUAAAAGAUAUAUGGAGUUAGUAGUGCAACCUGCUCGGUCUGAUGAGUCCNNNNNNGGACGAAACAGC

Assays:
[1] = variants of: B1; assay: normalized RNA/DNA level without ligand (relative to sTRSVctl = 100) (log10 (% of sTRSVctl)); HEK293T; ligand: cyclic di-GMP (c-di-GMP-II aptamer); higher = less ribozyme self-cleavage, higher mRNA level; conditions: reporter: mCherry (pCS4076), ligand present: no
Method in brief: (§1)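 For each 6-well well, 4 µg of library plasmid encoding mCherry-linked ribozyme switches, or eGFP-linked ones in some ligand experiments, was transfected into HEK293T. Any ligand was added 1 h before transfection, and RNA was extracted with EDTA 72 h after it, then reverse-transcribed, amplified, barcoded and sequenced. RNA level was obtained by dividing RNA reads by DNA reads, normalizing to a spiked-in non-cleaving sequence or to the top sequences, then scaling and log-transforming. The top set was 25 sequences, scaling was ×100 with log10, and ≥100 DNA reads were required.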

[2] = variants of: B1; assay: normalized RNA/DNA level with ligand (relative to sTRSVctl = 100) (log10 (% of sTRSVctl)); HEK293T; ligand: cyclic di-GMP (c-di-GMP-II aptamer); ligand concentration (+) RNA-Seq: 1 mM; higher = less ribozyme self-cleavage, higher mRNA level; conditions: reporter: mCherry (pCS4076), ligand present: yes
Method in brief: as §1

Variant	normalized RNA/DNA level without ligand (log10) [1]	normalized RNA/DNA level with ligand (log10) [2]
GCUGUCACCGAGAAACUGUGAAGUAUAUCUUAAACCUGGGCACUUAAAAGAUAUAUGGAGUUAGUAGUGCAACCUGCUCGGUCUGAUGAGUCCCCUACGGGACGAAACAGC [CCUACG]	1.7 ± 0.021	1.82 ± 0.13
GCUGUCACCGAGAAACUGUGAAGUAUAUCUUAAACCUGGGCACUUAAAAGAUAUAUGGAGUUAGUAGUGCAACCUGCUCGGUCUGAUGAGUCCCCUACUGGACGAAACAGC [CCUACU]	1.581 ± 0.011	1.76 ± 0.12
GCUGUCACCGAGAAACUGUGAAGUAUAUCUUAAACCUGGGCACUUAAAAGAUAUAUGGAGUUAGUAGUGCAACCUGCUCGGUCUGAUGAGUCCCCUAUCGGACGAAACAGC [CCUAUC]	1.63 ± 0.075	1.79 ± 0.077
GCUGUCACCGAGAAACUGUGAAGUAUAUCUUAAACCUGGGCACUUAAAAGAUAUAUGGAGUUAGUAGUGCAACCUGCUCGGUCUGAUGAGUCCGCUACUGGACGAAACAGC [GCUACU]	1.66 ± 0.019	1.81 ± 0.1
GCUGUCACCGAGAAACUGUGAAGUAUAUCUUAAACCUGGGCACUUAAAAGAUAUAUGGAGUUAGUAGUGCAACCUGCUCGGUCUGAUGAGUCCUCUAUAGGACGAAACAGC [UCUAUA]	1.56 ± 0.067	1.74 ± 0.12
GCUGUCACCGAGAAACUGUGAAGUAUAUCUUAAACCUGGGCACUUAAAAGAUAUAUGGAGUUAGUAGUGCAACCUGCUCGGUCUGAUGAGUCCUCUACUGGACGAAACAGC [UCUACU]	1.696 ± 0.012	1.82 ± 0.097
GCUGUCACCGAGAAACUGUGAAGUAUAUCUUAAACCUGGGCACUUAAAAGAUAUAUGGAGUUAGUAGUGCAACCUGCUCGGUCUGAUGAGUCCUCUACCGGACGAAACAGC [UCUACC]	1.798 ± 0.0078	1.88 ± 0.12
GCUGUCACCGAGAAACUGUGAAGUAUAUCUUAAACCUGGGCACUUAAAAGAUAUAUGGAGUUAGUAGUGCAACCUGCUCGGUCUGAUGAGUCCUCUACGGGACGAAACAGC [UCUACG]	1.74 ± 0.011	1.89 ± 0.092
GCUGUCACCGAGAAACUGUGAAGUAUAUCUUAAACCUGGGCACUUAAAAGAUAUAUGGAGUUAGUAGUGCAACCUGCUCGGUCUGAUGAGUCCUCUAGAGGACGAAACAGC [UCUAGA]	1.74 ± 0.021	1.88 ± 0.15
GCUGUCACCGAGAAACUGUGAAGUAUAUCUUAAACCUGGGCACUUAAAAGAUAUAUGGAGUUAGUAGUGCAACCUGCUCGGUCUGAUGAGUCCUCUAGUGGACGAAACAGC [UCUAGU]	1.66 ± 0.054	1.83 ± 0.057
GCUGUCACCGAGAAACUGUGAAGUAUAUCUUAAACCUGGGCACUUAAAAGAUAUAUGGAGUUAGUAGUGCAACCUGCUCGGUCUGAUGAGUCCUCUAGCGGACGAAACAGC [UCUAGC]	1.69 ± 0.023	1.88 ± 0.13
GCUGUCACCGAGAAACUGUGAAGUAUAUCUUAAACCUGGGCACUUAAAAGAUAUAUGGAGUUAGUAGUGCAACCUGCUCGGUCUGAUGAGUCCUCUAGGGGACGAAACAGC [UCUAGG]	1.81 ± 0.049	1.88 ± 0.12
GCUGUCACCGAGAAACUGUGAAGUAUAUCUUAAACCUGGGCACUUAAAAGAUAUAUGGAGUUAGUAGUGCAACCUGCUCGGUCUGAUGAGUCCACUAGGGGACGAAACAGC [ACUAGG]	1.52 ± 0.071	1.7 ± 0.066
GCUGUCACCGAGAAACUGUGAAGUAUAUCUUAAACCUGGGCACUUAAAAGAUAUAUGGAGUUAGUAGUGCAACCUGCUCGGUCUGAUGAGUCCACUAGCGGACGAAACAGC [ACUAGC]	1.6 ± 0.048	1.77 ± 0.12
GCUGUCACCGAGAAACUGUGAAGUAUAUCUUAAACCUGGGCACUUAAAAGAUAUAUGGAGUUAGUAGUGCAACCUGCUCGGUCUGAUGAGUCCACUAGUGGACGAAACAGC [ACUAGU]	1.674 ± 0.011	1.8 ± 0.065
GCUGUCACCGAGAAACUGUGAAGUAUAUCUUAAACCUGGGCACUUAAAAGAUAUAUGGAGUUAGUAGUGCAACCUGCUCGGUCUGAUGAGUCCACUAGAGGACGAAACAGC [ACUAGA]	1.41 ± 0.066	1.64 ± 0.12
GCUGUCACCGAGAAACUGUGAAGUAUAUCUUAAACCUGGGCACUUAAAAGAUAUAUGGAGUUAGUAGUGCAACCUGCUCGGUCUGAUGAGUCCACUACCGGACGAAACAGC [ACUACC]	1.69 ± 0.04	1.86 ± 0.097
GCUGUCACCGAGAAACUGUGAAGUAUAUCUUAAACCUGGGCACUUAAAAGAUAUAUGGAGUUAGUAGUGCAACCUGCUCGGUCUGAUGAGUCCACUACGGGACGAAACAGC [ACUACG]	1.61 ± 0.022	1.81 ± 0.1
GCUGUCACCGAGAAACUGUGAAGUAUAUCUUAAACCUGGGCACUUAAAAGAUAUAUGGAGUUAGUAGUGCAACCUGCUCGGUCUGAUGAGUCCACUACUGGACGAAACAGC [ACUACU]	1.68 ± 0.041	1.82 ± 0.14
GCUGUCACCGAGAAACUGUGAAGUAUAUCUUAAACCUGGGCACUUAAAAGAUAUAUGGAGUUAGUAGUGCAACCUGCUCGGUCUGAUGAGUCCCCUAGGGGACGAAACAGC [CCUAGG]	1.79 ± 0.045	1.84 ± 0.13
GCUGUCACCGAGAAACUGUGAAGUAUAUCUUAAACCUGGGCACUUAAAAGAUAUAUGGAGUUAGUAGUGCAACCUGCUCGGUCUGAUGAGUCCCCUAGCGGACGAAACAGC [CCUAGC]	1.6495 ± 0.00083	1.82 ± 0.056
GCUGUCACCGAGAAACUGUGAAGUAUAUCUUAAACCUGGGCACUUAAAAGAUAUAUGGAGUUAGUAGUGCAACCUGCUCGGUCUGAUGAGUCCCCUAGAGGACGAAACAGC [CCUAGA]	1.585 ± 0.0086	1.79 ± 0.074
GCUGUCACCGAGAAACUGUGAAGUAUAUCUUAAACCUGGGCACUUAAAAGAUAUAUGGAGUUAGUAGUGCAACCUGCUCGGUCUGAUGAGUCCCCUAGUGGACGAAACAGC [CCUAGU]	1.72 ± 0.02	1.85 ± 0.11
GCUGUCACCGAGAAACUGUGAAGUAUAUCUUAAACCUGGGCACUUAAAAGAUAUAUGGAGUUAGUAGUGCAACCUGCUCGGUCUGAUGAGUCCGCUAGCGGACGAAACAGC [GCUAGC]	1.696 ± 0.0018	1.8 ± 0.17
GCUGUCACCGAGAAACUGUGAAGUAUAUCUUAAACCUGGGCACUUAAAAGAUAUAUGGAGUUAGUAGUGCAACCUGCUCGGUCUGAUGAGUCCGCUAGGGGACGAAACAGC [GCUAGG]	1.54 ± 0.12	1.7 ± 0.062
GCUGUCACCGAGAAACUGUGAAGUAUAUCUUAAACCUGGGCACUUAAAAGAUAUAUGGAGUUAGUAGUGCAACCUGCUCGGUCUGAUGAGUCCGCUAGUGGACGAAACAGC [GCUAGU]	1.58 ± 0.069	1.78 ± 0.086
